Assay results: doi:10.1101/2022.07.26.501514

Biological target: T1, Atg18 wildtype (Autophagy-related protein 18, Saccharomyces cerevisiae) (Saccharomyces cerevisiae), P43601
T1 chain: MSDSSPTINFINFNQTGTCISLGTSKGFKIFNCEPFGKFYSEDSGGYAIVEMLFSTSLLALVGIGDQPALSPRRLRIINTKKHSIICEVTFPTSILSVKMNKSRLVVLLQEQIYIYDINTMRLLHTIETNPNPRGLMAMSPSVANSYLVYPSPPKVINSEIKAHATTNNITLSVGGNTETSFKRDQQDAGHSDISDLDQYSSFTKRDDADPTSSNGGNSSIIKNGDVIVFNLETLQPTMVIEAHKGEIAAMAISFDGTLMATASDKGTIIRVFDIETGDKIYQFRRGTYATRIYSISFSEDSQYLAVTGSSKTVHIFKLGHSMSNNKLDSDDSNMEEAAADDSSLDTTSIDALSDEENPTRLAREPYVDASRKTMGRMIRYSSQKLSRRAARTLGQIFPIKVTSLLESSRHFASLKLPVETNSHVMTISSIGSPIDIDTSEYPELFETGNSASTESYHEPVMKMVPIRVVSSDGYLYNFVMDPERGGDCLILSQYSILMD
Assay: single-particle cryo-EM, 2D classification
Settings: remark: other sources report otherwise

B1: Atg18 wildtype (Autophagy-related protein 18, Saccharomyces cerevisiae), P43601 1-500 (natural protein)
chain: MSDSSPTINFINFNQTGTCISLGTSKGFKIFNCEPFGKFYSEDSGGYAIVEMLFSTSLLALVGIGDQPALSPRRLRIINTKKHSIICEVTFPTSILSVKMNKSRLVVLLQEQIYIYDINTMRLLHTIETNPNPRGLMAMSPSVANSYLVYPSPPKVINSEIKAHATTNNITLSVGGNTETSFKRDQQDAGHSDISDLDQYSSFTKRDDADPTSSNGGNSSIIKNGDVIVFNLETLQPTMVIEAHKGEIAAMAISFDGTLMATASDKGTIIRVFDIETGDKIYQFRRGTYATRIYSISFSEDSQYLAVTGSSKTVHIFKLGHSMSNNKLDSDDSNMEEAAADDSSLDTTSIDALSDEENPTRLAREPYVDASRKTMGRMIRYSSQKLSRRAARTLGQIFPIKVTSLLESSRHFASLKLPVETNSHVMTISSIGSPIDIDTSEYPELFETGNSASTESYHEPVMKMVPIRVVSSDGYLYNFVMDPERGGDCLILSQYSILMD
For B1, the stoichiometry N was 2.
